Data from patent publication US20230212305A1 (published 2023).

T1: human ABCG2 (human, UniProt Q9UNQ0 1-655)
T1 construct: also called hG2; KPG2
T1 sequence: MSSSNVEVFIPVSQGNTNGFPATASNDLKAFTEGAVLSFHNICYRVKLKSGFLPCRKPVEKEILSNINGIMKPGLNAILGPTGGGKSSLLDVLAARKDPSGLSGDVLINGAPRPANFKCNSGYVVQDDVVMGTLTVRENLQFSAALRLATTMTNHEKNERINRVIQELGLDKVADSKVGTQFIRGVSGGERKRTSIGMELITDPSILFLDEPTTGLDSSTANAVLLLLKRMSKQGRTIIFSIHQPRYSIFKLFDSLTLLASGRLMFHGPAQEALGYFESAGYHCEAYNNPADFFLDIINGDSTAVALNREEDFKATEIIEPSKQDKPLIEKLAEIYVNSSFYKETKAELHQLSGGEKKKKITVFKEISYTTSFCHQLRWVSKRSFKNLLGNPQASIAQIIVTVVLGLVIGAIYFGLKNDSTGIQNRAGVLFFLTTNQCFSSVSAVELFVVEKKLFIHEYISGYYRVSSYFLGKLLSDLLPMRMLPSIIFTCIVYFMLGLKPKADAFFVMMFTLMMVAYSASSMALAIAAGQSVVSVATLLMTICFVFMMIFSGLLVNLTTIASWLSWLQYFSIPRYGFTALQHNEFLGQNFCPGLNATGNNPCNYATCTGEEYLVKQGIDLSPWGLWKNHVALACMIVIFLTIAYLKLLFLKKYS

T2: cynomolgus ABCG2 (Macaca fascicularis) (Macaca fascicularis (cynomolgus), UniProt Q5MB13 1-654 (rhesus entry))
T2 construct: also called cABCG2
T2 sequence: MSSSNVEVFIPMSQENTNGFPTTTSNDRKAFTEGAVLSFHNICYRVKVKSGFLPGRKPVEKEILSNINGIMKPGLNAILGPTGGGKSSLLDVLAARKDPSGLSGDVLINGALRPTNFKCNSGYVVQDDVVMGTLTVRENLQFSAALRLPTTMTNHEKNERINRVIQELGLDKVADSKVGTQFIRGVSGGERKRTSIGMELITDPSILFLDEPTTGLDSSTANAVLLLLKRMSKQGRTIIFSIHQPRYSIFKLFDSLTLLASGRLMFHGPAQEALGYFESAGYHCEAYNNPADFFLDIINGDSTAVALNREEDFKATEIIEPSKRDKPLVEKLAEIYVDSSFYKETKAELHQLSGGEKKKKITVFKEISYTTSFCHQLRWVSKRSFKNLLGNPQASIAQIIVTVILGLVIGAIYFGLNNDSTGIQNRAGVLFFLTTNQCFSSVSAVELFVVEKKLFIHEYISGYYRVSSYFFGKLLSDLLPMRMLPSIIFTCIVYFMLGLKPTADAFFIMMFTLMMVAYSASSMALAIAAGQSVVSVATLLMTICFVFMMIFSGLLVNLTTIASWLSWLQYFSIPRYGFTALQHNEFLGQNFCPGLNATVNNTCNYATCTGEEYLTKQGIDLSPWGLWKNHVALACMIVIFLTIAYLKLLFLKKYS


Columns and labels:
human ABCG2 = molecular target: T1, human ABCG2; test: flow cytometry titration on 293T_ABCG2_OX cells; column Affinity for human ABCG2 (nM)
Protocol: (§1) Cell Binding Assays. Antibody binding to cells was evaluated by flow cytometry. […] After incubating cells on ice for 30 min, cells were washed twice with flow cytometry buffer. Bound antibody was detected with PE-labeled F(ab′)₂ fragment goat anti-human IgG (Jackson ImmunoResearch) and evaluated on an Attune NxT flow cytometer.

[1] = molecular target: T2, cynomolgus ABCG2 (Macaca fascicularis); test: flow cytometry on cells expressing cynomolgus ABCG2
Protocol: as §1

[2] = molecular target: T2, cynomolgus ABCG2 (Macaca fascicularis); test: flow cytometry on cells expressing cynomolgus ABCG2; paragraph 395: non-significant binding = -
Protocol: as §1

Kd (human ABCG2) | binding result [1] | binding result [2] | Binder
7.9 nM | binds | – | G2.257 mouse (antibody, human IgG1, V domains shown, Variable regions cloned onto human IgG1 constant heavy chain and human kappa constant light chain) VH: EVQLQQSGPELVKPGASLKISCKTFGYSFTGYYMHWVKQSPEKSLEWIGKIVPSTGGTTYNQKFKAKATLTVDKSSFTAYMQLKSLTTEDSAVYYCAREKVYGYDVYYFDYWGQGTTLTVSS VL: DIQMTQTPSSLSASLGDRVTITCSTSQGVRSYLNWYQQKPDGSVKLLIYYTSSLHSGVPSRFSGSGSGTDYSLTISNLEPEDIATYYCQQYSKLPYTFGGGTKLELK
80 nM | binds | – | G2.348 rat (antibody, human IgG1, V domains shown, Variable regions cloned onto human IgG1 constant heavy chain and human kappa constant light chain) VH: EVQLVESGPGLMQPSQTLSLTCTVSGFSLTSNGVSWVRQPPGKGLEWIATISSGGNTNYNSALKSRLSISRDTSKSQVFLKMNSLQTEDTAIYFCTRVGYYGYNPIWFAYWGQGTLVTVSS VL: DVVMTQTPPTLSATIGHSVSISCRSSQSLFHSSGNTYLSWFLQRPGQPPQLLIYLVSRLESRVPNRFSGSGSGTDFTLKISVLEAEDLGVYYCVQTTHAPFTFGSGTKLEIK
25 nM | binds | – | G2.302 mouse (antibody, human IgG1, V domains shown, Variable regions cloned onto human IgG1 constant heavy chain and human kappa constant light chain; also called G.302) VH: QIQLQQSGPELVRPGASVKISCKASGYTFTDYYINWVKQRPGQGLEWIGWIYPGNVNVKYNEKFKGKATLTVDTSSSTGYMQLRSLTSEDSAVYFCARSIGLRYFDNWGQGTTLTVSS VL: EKVLTQSPAIMSASLGEKVTMSCRASSSVHYMYWHQQKSDASPRLWIYYTSNLAPGVPARFSGSGSGNFYSLTISSVEDEDGATYYCQQFTTSTWTFGGGTKLEIK
17 nM | – | no binding | G2.173 mouse (antibody, human IgG1, V domains shown, Variable regions cloned onto human IgG1 constant heavy chain and human kappa constant light chain) VH: QVQLQQSGADLVRPGASVKLSCTASGFNIKDDYVHWVKQRPEQGLEWIGRIDPANGNTRYAPKFRGKATMTADTSSNTAYLQLSSLTSADTAVYYCSPPLWVGGFAYWGQGTLVTVSS VL: DVVMTQTPLSLPVSLGDQASISCRSSQSLVHSDVNTYLHWYLQRPGQSPKLLIYKVSNRFSGVPDRFSGSGSGTDFTLKISRVESEDLGIYFCSQTTHVPYTFGGGTKLEIK
46 nM | – | no binding | G2.173 Humanized 1 (antibody, human IgG1, V domains shown) VH: EVQLVQSGAEVKKPGASVKVSCKASGFNIKDDYVHWVRQAPGQGLEWIGRIDPANGNTRYAPKFRGRATMTADTSISTAYMELSRLRSDDTAVYYCSPPLWVGGFAYWGQGTLVTVSS VL: DVVMTQSPLSLPVTLGQPASISCRSSQSLVHSDVNTYLHWYQQRPGQSPRLLIYKVSNRFSGVPDRFSGSGSGTDFTLKISRVEAEDVGVYFCSQTTHVPYTFGGGTKLEIK
273 nM | – | no binding | G2.173 Humanized 2 (antibody, human IgG1, V domains shown) VH: EVQLVQSGAEVKKPGASVKVSCKASGFNIKDDYVHWVRQAPGQGLEWIGRIDPAQGNTRYAPKFRGRATMTADTSISTAYMELSRLRSDDTAVYYCSPPLWVGGFAYWGQGTLVTVSS VL: DVVMTQSPLSLPVTLGQPASISCRSSQSLVHSDVNTYLHWYQQRPGQSPRLLIYKVSNRFSGVPDRFSGSGSGTDFTLKISRVEAEDVGVYFCSQTTHVPYTFGGGTKLEIK
44 nM | – | no binding | G2.173 Humanized 3 (antibody, human IgG1, V domains shown) VH: EVQLVQSGAEVKKPGASVKVSCKASGFNIKDDYVHWVRQAPGQGLEWIGRIDPASGNTRYAPKFRGRATMTADTSISTAYMELSRLRSDDTAVYYCSPPLWVGGFAYWGQGTLVTVSS VL: DVVMTQSPLSLPVTLGQPASISCRSSQSLVHSDVNTYLHWYQQRPGQSPRLLIYKVSNRFSGVPDRFSGSGSGTDFTLKISRVEAEDVGVYFCSQTTHVPYTFGGGTKLEIK
– | binds | – | G2.630 rat (antibody, human IgG1, V domains shown, Variable regions cloned onto human IgG1 constant heavy chain and human kappa constant light chain) VH: EVQLVESGPGLVKPSQSLSLTCSVTGYTITSGYDWTWIRKFPGNKMEWMGYISYSGFTNYNPSLRSRISITRDTSKNQFFLQLNSVTTEDTATYYCTRTRGYNPFAYWGQGTLVTVSS VL: DVVMTQSPSLLSASVGDRVTLSCKAGRNINNYLAWYQQKLGKAPKLLIYNTNSLQTGIPSRFSGSGSGTDFTLTISSLQPEDVATYFCQQYNSWTTFGSGTKLEIK
– | binds | – | G2.320 rat (antibody, human IgG1, V domains shown, Variable regions cloned onto human IgG1 constant heavy chain and human kappa constant light chain) VH: EVQLEESGPGLVKPSQSLSLTCSVTGYTITSGYDWTWIRKFPGNKMEWMGYISYSGFTNYNPSLRSRISITRDTSKNQFFLQLNSVTTEDTATYYCTRTRGYNPFAYWGQGASVSSAS VL: DIVMTQSPSLLSASVGDRVTLSCKAGRNINNYLAWYQQKLGKAPKLLIYNTNSLQTGIPSRFSGSGSGTDFTLTISSLQPEDVATYFCQQYNSWTTFGSGTKLEIK
– | binds | – | G2.318 rat (antibody, human IgG1, V domains shown, Variable regions cloned onto human IgG1 constant heavy chain and human kappa constant light chain) VH: EVKLLESGPGLVKPSQSLSLTCSVTGYTITSGYDWSWIRKFPGNKMEWMGYISYSGWTNYNPSLRSRISISRDTSKNQFFLQLNSVTTEDTATYYCARVRGYNPFAYWGQGTLVTVSS VL: DIVMTQSPSLLSASVGDRVTLSCKAGQNINNYLAWYQQKLGEAPKLLIYNANSLQTGIPSRFSGSGSGTDFTLTISSLQPEDVATYFCQQYNSWTTFGSGTKLEIK
179 nM | – | no binding | G2.65 mouse (antibody, human IgG1, V domains shown, Variable regions cloned onto human IgG1 constant heavy chain and human kappa constant light chain; also called KNJY-G2-65) VH: QGQMHQSGAELVKPGASVKLSCKTSGFTFNSGYISWLKQKPRQSLEWIAWIYAGTGISNFNQKFTGKAQLTVDTSSSTAYMQLSSLTSADSAIYFCASGARKTLDFWGQGTSVTVSS VL: DIQMTQSSSYLSVSVGGRVTITCKASDQINYWLAWYQQKPGNAPRLLISGATSLETGVPSRFSGSGSGKDYTLSITSFQTEDVATYYCQQYWTTPYTFGGGTKVEIK
40 nM | binds | – | G2.343 rat (antibody, human IgG1, V domains shown, Variable regions cloned onto human IgG1 constant heavy chain and human kappa constant light chain) VH: SVQLKESGPGLVQPSQTLSLTCTVSGFSLTSNGVSWVRQPPGKGLEWIAAISSGGSTYYNSVLKSRLSISRDTSKSQVFLKMNSLQTEDTAIYFCTRDTYYGYNQIPFVYWGQGTLVTVSS VL: DVVLAQTPPTLSATIGQSVSISCRSSQSLLHSSGNTYLNWLLQRPGQPPQLLIYLVSRLESRVPNRFSGSGSGTDFTLKISGVEAEDLGVYYCVQSTHAPRTFGGGTKLELK
168 nM | binds | – | G2.346 rat (antibody, human IgG1, V domains shown, Variable regions cloned onto human IgG1 constant heavy chain and human kappa constant light chain) VH: SVQWKESGPGLVQPSQTLSLTCTVSGFSLTSNGVSWVRQPPGKGLEWIAAISSGGSTYYNSGLKSRLSISRDTSKSQVFLKMNSLQTEDTAIYFCTRAGYYGYNPIWFTYWGQGTLVTVSS VL: DVVMTQTPPTLSATIGQSVSISCRSSQSLLHGSGNTYLNWLLQRPGQPPQILIYLVSRLESRVPKRFSGSGSGTDFTLKISGVEADDLGVYYCVQSTHAPFTFGSGTKLELK
56 nM | binds | – | G2.420 rat (antibody, human IgG1, V domains shown, Variable regions cloned onto human IgG1 constant heavy chain and human kappa constant light chain; also called G.420; KNJY-G2-420) VH: SVQLMESGPGLVQPSQTLSLTCTVSGFSLNSYNVNWVRQPPGKGLEWIAAISSGGSTYYNSVLKSRLSITRDTSKSQVFLKMNSLQTEDTAMYFCARSGYYSSYMNWGQGVMVTVSS VL: DVVMTQTPPTLSATIGQSVSISCRSSQSLLHSTGNTYLNWLLQRPGQPPQLLIYLVSRLEYGVPNRFSGSGSGTDFTLKISGVEAEDLGVYYCAQSTHALNTFGAGTKLELK
59 nM | binds | – | G2.302 Humanized (antibody, human IgG1, V domains shown) VH: EIQLVQSGAEVKKPGASVKVSCKASGYTFTDYYINWVRQAPGQRLEWIGWIYPGNVNVKYNEKFKGRATLTVDTSASTGYMELSSLRSEDTAVYFCARSIGLRYFDNWGQGTLVTVSS VL: EKVLTQSPATLSLSPGERATLSCRASSSVHYMYWHQQKPGQSPRLWIYYTSNLAPGVPARFSGSGSGNDYTLTISSLEPEDFAVYYCQQFTTSTWTFGGGTKLEIK
88 nM | binds | – | G2.394 rat (antibody, human IgG1, V domains shown, Variable regions cloned onto human IgG1 constant heavy chain and human kappa constant light chain) VH: EVQLKESGPGLVQPSQTLSLTCTVSGFSLTDYTITWVRQPPGKGLEWIAATSVGGATHYNSPLKSRLSISGDTSKSQVFLKMNSLRTEDTAMYFCVRSGYYSTYMNWGRGTMVTVSS VL: DVVMTQTPPTFSATIGQSVSISCRSSQSLLHSSGNTFLSWLLQRPGQPPQLLIYLVSRLEFGVPNRFSGSGSGTDFTLKISGVEAEDLGVYYCVQSTHVMNTFGAGTKLEIK
